From the supplement of paper PMC10567573
± gives the standard deviation.

Assay: protein stability index of a GFP-peptide fusion (GPS, HEK-293T) (PSI 1-6); higher = more stable
Conditions: c terminus: a fixed tail appended
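Note: 24-mer peptide tiles fused after GFP, lentivirally expressed, FACS-sorted into six equal bins by GFP/DsRed ratio, decoded by Illumina sequencing, PSI is the read-weighted mean bin number.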

Sequence | protein stability index (treatment: DMSO) | protein stability index (treatment: MLN4924 1 uM, 8 h)
MGPAQEAPVAEAWIPQAGPPELNY [ZNF449] | 4.46 ± 0.27 | 4.51 ± 0.17
KERPLVIGHFNTASGVGFILGPVV [MFSD9] | 3.04 ± 1.1 | 2.77 ± 0.51
GGTGSGDGNKIFLCHCGKAFSHKS [ZBTB22] | 2.27 ± 0.38 | 2.58 ± 0.41
VVLCFSIANPNSLNHVKSMWYPEI [RHOBTB1] | 4.05 ± 0.91 | 3.6 ± 0.21
KEKWWDGQRDRKAEHWKHKKEESG [PBXIP1] | 4.54 ± 0.21 | 4.66 ± 0.52
IDGVATTRYSVAGLSPYSDYEFRV [PTPRD] | 2.02 ± 0.24 | 2.02 ± 0.29
TNRWSFDGIDRWIKEIDEHAPGVP [RAB40C] | 3.91 ± 0.17 | 3.97 ± 0.22
FLTSRTRALLRRFPRMLLVDRLPG [ZSWIM9] | 2.57 ± 0.56 | 2.41 ± 0.39
LRSQLQTLKQQHQQAVEQIAKAEE [CCDC89] | 4.66 ± 0.15 | 4.76 ± 0.11
AEMLGSVVGNWQYFFPVIFSKASD [MAGEA6] | 2.37 ± 0.31 | 2.31 ± 0.31
KFAGSFYFAITVITTIGYGHAAPG [KCNK9] | 3.42 ± 0.31 | 3.27 ± 0.17
LPGRGRVLSSWSRAFVSIQEEMAE [RHOBTB2] | 3.08 ± 0.54 | 3.25 ± 0.27
LREMCALSFQEELLYWGIAEDHLD [KCNG1] | 2.27 ± 0.27 | 2.26 ± 0.22
RNLLVENIIDIYKQESTRPEKKSD [TRIM55] | 4.42 ± 0.51 | 4.73 ± 0.11
DHEHEEADLELSLPECLEYEEEFD [GNAS] | 5.55 ± 0.46 | 5.53 ± 0.22
PTPSSPLPSVPVSVPASDPRSCSS [PLEKHN1] | 5.15 ± 0.2 | 5.14 ± 0.26
EGHCVIQVDVGDVNDNAPEVLLAS [PCDHGC5] | 3.86 ± 0.35 | 3.96 ± 0.27
EQVFNAVMAWVKYSIQERRPQLPQ [KLHL20] | 2.75 ± 0.67 | 2.35 ± 0.68

Sequence | protein stability index (treatment: DMSO) | protein stability index (treatment: MLN4924 1 uM, 8 h)
NPQENRWHTIAPMGTRRKHLGCAV [KLHL20] | 3.1 ± 0.13 | 3.11 ± 0.095
QELCEGLLEESDGEGEPGQGEGPE [NOP53] | 5.6 ± 0.14 | 5.56 ± 0.11
ASIHWDWKIALLFVAFALCMFCLY [SLC35F2] | 2.17 ± 0.36 | 2.26 ± 0.24
IGLRLVLEYLYTANVTLSLDTVEE [KLHL14] | 2.96 ± 0.5 | 3.02 ± 0.47
AVAVDVAVPKRLLEIVGREGVSLT [HAGHL] | 2.84 ± 0.23 | 2.84 ± 0.19
SSPGPWGLEALAGGDLMPAPADPT [FCHO1] | 4.78 ± 0.4 | 4.65 ± 0.23
IFCIKRFTKNNFFVEKNPTIVNFP [USP39] | 3.02 ± 0.74 | 2.38 ± 0.76
QRQKYLSLQQMQELSNILNLSYKQ [NANOGP8] | 2.57 ± 0.29 | 2.69 ± 0.15
CLVCQASFCELHLKPHLEGAAFRD [TRIM29] | 3.68 ± 0.32 | 3.67 ± 0.43
VTPAQNNLLQPNFEAAFGTTPSTS [SNAP91] | 4.52 ± 0.13 | 4.62 ± 0.14
KDGKAFHPTYEEKLKLVALHKQVL [ACBD3] | 2.68 ± 0.33 | 2.65 ± 0.11
IHAYNLGTNAWEEIATKPHEKIGF [KLHDC10] | 2.48 ± 0.15 | 2.57 ± 0.54
LEAVLHCHQMGVVHRDLKPENLLL [CAMK2B] | 2.22 ± 0.3 | 2.15 ± 0.35
YRQKKRAEQEALTGECKELEKKNE [ATF4] | 5.47 ± 0.24 | 5.59 ± 0.19
SLASASPPLSGRSTPKLTSRSAAQ [PPFIA4] | 4.5 ± 0.31 | 4.6 ± 0.14
AHLAAEVEGKCLQSGFEMLKDVKS [TRIM39] | 4.17 ± 0.22 | 4.62 ± 0.28
SNLSYHLEKNHPEEFCEFVKSNTE [ZBED1] | 4.72 ± 0.18 | 4.69 ± 0.29
FMKYVDSNLCCFIPGKVIDEIYRV [FBXO28] | 2.99 ± 0.91 | 2.65 ± 0.4
